Where only a bound is given, the exact number is not on record here.

The target in experiment [1] is T1, human c-Met (HGFR), full length, on the cell surface (human, UniProt P08581 25-1390).
T1 construct: Endogenous c-Met on human tumor cell lines MKN45, NCI-H596, PC-3 and HepG2; also called hepatocyte growth factor receptor; mesenchymal-epithelial transition factor
Nature of the experiment: flow cytometry on MKN45, NCI-H596 and PC-3 cells. On the procedure:
Cellular binding of the 14 wild-type chimeric and the 14 HC-41C chimeric anti-c-Met antibodies was studied in human c-Met-positive tumor cell lines MKN45, NCI-H596 and PC-3, rhesus c-Met-positive tumor cell line 4 MBr-5, and human c-Met-negative tumor cell line MDA-MB-175-VII. Cells were used around 90% of confluence at the time of an assay, detached with Trypsin-Versene (EDTA) (Lonza) for 5-10 minutes, washed and adjusted to a concentration of 1×10⁶ cells/mL in ice-cold FACS buffer (PBS 1×, 0.1% v/w BSA, 0.02% v/v sodium azide (NaN₃)). Staining was performed in 96-well round-bottomed microtiter plates using ice-cold reagents/solutions at 4° C. to prevent the modulation and internalization of surface antigens. 100,000 cells/well were added to 96-well plates (100 μL/well) and centrifuged at 300×g for 3 minutes. In case of pre-incubation with HGF (paracrine cell lines only), the cells were resuspended in 50 ng/mL recombinant human HGF in FACS buffer (50 μL/well) and incubated for 30 minutes at 4° C., followed by two wash steps with 150 μL FACS buffer. Supernatant was discarded and cells were stained for 30 minutes with 50 μL of each antibody. Serial dilutions were made in ice-cold FACS buffer. Cells were washed twice by centrifugation at 300×g for 3 minutes and resuspended in 50 μL 6000-times diluted secondary F(ab′)₂ goat anti-human IgG (Fc fragment specific) antibody APC-conjugated (Jackson ImmunoResearch). Following a 30-minute incubation on ice, cells were washed again 2 times and resuspended in 150 μL ice-cold FACS buffer for FACS analysis. For analysis of the data, the Median Fluorescence Intensity (MFI) values were obtained.
A general note: In flow cytometry, cells or beads pass a laser one at a time.

The target in a further experiment is T2, c-Met (Homo sapiens, UniProt P08581, DEL964-1010).
T2 construct: endogenous in cells; host or cells: NCI-H596
Nature of the experiment: Functionality of chimeric antibodies, stimulation of proliferation experiment in NCI-H596 cells. Format: cell-based. The source says:
From this perspective, although all three wt/41C chimeric mAbs were humanized and studied in further experiments, wt/41C-chi-mAb3 is the most preferred chimeric anti-c-Met antibody to further develop into an ADC for treatment of a cancer indication.

The target in experiment [2] is T1, human c-Met (HGFR), full length, on the …. The experiment can be described thus: cell-based or functional assay.
Experiment [3] has the same target. The experiment can be described thus: cell binding on c-Met positive MKN45 cells, fluorescence readout RFU (R-PE), mean ± S.E.M. of two experiments in duplicate.

B1: wt-chi-mAb2 (antibody, human IgG1, kappa, V domains shown)
VH: QVQLQQSGAELVRPGASVKLSCKASGYVFPDYEMHWVKQTPVHGLEWIGAFDPETGDTTYNQNFKGKATLTADKASSTAYMDLRSLTSGDSAVYYCARDYKYLYYYAMDNWGQGTSVTVSS
VL: QIVLTQSPAIMSASLGERVTMTCTASSSITSSYLHWYQQKPGSSPKLWIYSTTNLASGVPGRFSGSGSGTSFSLTISSMEAEDAATYYCHQYRRSPLTFGAGTKLELKR
notes: Mouse/human chimeric IgG1 kappa; also called wild-type chimeric antibody mAb2
As for B1, the binding result in experiment [1] is “binds”.

B2: 41C-chi-mAb2: HC-41C chimeric anti-c-Met IgG1 antibody, VH SEQ ID NO:8, VL SEQ ID NO:4 (antibody, V domains shown)
VH: QVQLQQSGAELVRPGASVKLSCKASGYVFPDYEMHWVKQTCVHGLEWIGAFDPETGDTTYNQNFKGKATLTADKASSTAYMDLRSLTSGDSAVYYCARDYKYLYYYAMDNWGQGTSVTVSS
VL: QIVLTQSPAIMSASLGERVTMTCTASSSITSSYLHWYQQKPGSSPKLWIYSTTNLASGVPGRFSGSGSGTSFSLTISSMEAEDAATYYCHQYRRSPLTFGAGTKLELK
modifications: IgG1 constant regions; HCVR - VH P41C; LCVR
Turning to B2, in the experiment with c-Met, the Functionality result is “Partial agonist”.

B3: wt-chi-mAb2: wild-type chimeric anti-c-Met IgG1 antibody, VH SEQ ID NO:3, VL SEQ ID NO:4 (antibody, V domains shown)
VH: QVQLQQSGAELVRPGASVKLSCKASGYVFPDYEMHWVKQTPVHGLEWIGAFDPETGDTTYNQNFKGKATLTADKASSTAYMDLRSLTSGDSAVYYCARDYKYLYYYAMDNWGQGTSVTVSS
VL: QIVLTQSPAIMSASLGERVTMTCTASSSITSSYLHWYQQKPGSSPKLWIYSTTNLASGVPGRFSGSGSGTSFSLTISSMEAEDAATYYCHQYRRSPLTFGAGTKLELK
modifications: human IgG1 constant regions; HCVR; LCVR
For the molecule B3, the Functionality result in the experiment with c-Met is “Partial agonist”.

B4: 41C-chi-mAb2 (antibody, human IgG1, kappa, V domains shown)
VH: QVQLQQSGAELVRPGASVKLSCKASGYVFPDYEMHWVKQTCVHGLEWIGAFDPETGDTTYNQNFKGKATLTADKASSTAYMDLRSLTSGDSAVYYCARDYKYLYYYAMDNWGQGTSVTVSS
VL: QIVLTQSPAIMSASLGERVTMTCTASSSITSSYLHWYQQKPGSSPKLWIYSTTNLASGVPGRFSGSGSGTSFSLTISSMEAEDAATYYCHQYRRSPLTFGAGTKLELKR
notes: Chimeric IgG1 kappa with an engineered cysteine at HC position 41 (Kabat); also called HC-41C chimeric antibody mAb2
In the case of B4, the binding result in experiment [1] was “binds”.

B5: wt-chi-mAb1 (antibody, human IgG1, kappa, V domains shown)
VH: EVQLQQSGPELLKPGASVKMSCKASGYIFTDYFMNWVKQSHGKSLEWIGRVNPKNGDITYNQKFRGKATLTVDKSLTTAYMQLNSLTSEDSAVYFCAYDGYYDGMDFWGQGTSVTVSS
VL: ENVLTQSPAIMSASPGEKVTMTCRANSSVSSNFLHWYQQKSGASPKLWISSTSNLAFGVPPRFSGSGSGTSYSLTISSVEAEDAATYYCHQYSGHPFTFGSGTKLEIKR
notes: Mouse/human chimeric IgG1 kappa; also called wild-type chimeric antibody mAb1
As for B5, in experiment [1], the binding result is “binds”.

B6: 41C-chi-mAb1: HC-41C chimeric anti-c-Met IgG1 antibody, VH SEQ ID NO:7, VL SEQ ID NO:2 (antibody, V domains shown)
VH: EVQLQQSGPELLKPGASVKMSCKASGYIFTDYFMNWVKQSCGKSLEWIGRVNPKNGDITYNQKFRGKATLTVDKSLTTAYMQLNSLTSEDSAVYFCAYDGYYDGMDFWGQGTSVTVSS
VL: ENVLTQSPAIMSASPGEKVTMTCRANSSVSSNFLHWYQQKSGASPKLWISSTSNLAFGVPPRFSGSGSGTSYSLTISSVEAEDAATYYCHQYSGHPFTFGSGTKLEIK
modifications: IgG1 constant regions; HCVR - VH H41C; LCVR
As for B6, the Functionality result in the experiment with c-Met was “Partial agonist”.

B7: wt-chi-mAb1: wild-type chimeric anti-c-Met IgG1 antibody, VH SEQ ID NO:1, VL SEQ ID NO:2 (antibody, V domains shown)
VH: EVQLQQSGPELLKPGASVKMSCKASGYIFTDYFMNWVKQSHGKSLEWIGRVNPKNGDITYNQKFRGKATLTVDKSLTTAYMQLNSLTSEDSAVYFCAYDGYYDGMDFWGQGTSVTVSS
VL: ENVLTQSPAIMSASPGEKVTMTCRANSSVSSNFLHWYQQKSGASPKLWISSTSNLAFGVPPRFSGSGSGTSYSLTISSVEAEDAATYYCHQYSGHPFTFGSGTKLEIK
modifications: human IgG1 constant regions; HCVR; LCVR
In the case of B7, the Functionality entry with c-Met is listed as “Partial agonist”.

B8: 41C-chi-mAb1 (antibody, human IgG1, kappa, V domains shown)
VH: EVQLQQSGPELLKPGASVKMSCKASGYIFTDYFMNWVKQSCGKSLEWIGRVNPKNGDITYNQKFRGKATLTVDKSLTTAYMQLNSLTSEDSAVYFCAYDGYYDGMDFWGQGTSVTVSS
VL: ENVLTQSPAIMSASPGEKVTMTCRANSSVSSNFLHWYQQKSGASPKLWISSTSNLAFGVPPRFSGSGSGTSYSLTISSVEAEDAATYYCHQYSGHPFTFGSGTKLEIKR
notes: Chimeric IgG1 kappa with an engineered cysteine at HC position 41 (Kabat); also called HC-41C chimeric antibody mAb1
For the molecule B8, the binding result in experiment [1] is “binds”.

B9: ADC3b (antibody, human IgG1, kappa, V domains shown)
VH: QVQLVQSGAEVKKPGASVKVSCKASGYTFTDYYLNWVRQACGQGLEWMGLIFPGNDKTEYSEKFKGRVTLTTDTSISTAYMELSSLTSDDTALYYCSGGDYGGFVYWGQGTLVTVSS
VL: DIQMTQSPSSLSASVGDRVTISCGASENIYGALNWYQQQPGKAPKVLIFGATNLADGVPSRFSGSGSGTDFTLTISSLQPEDFATYYCQNVLSSPLTFGQGTKLEIKR
modifications: vc-seco-DUBA linker-drug on the engineered cysteine at HC position 41 (Kabat); DAR 1.9
notes: Antibody-drug conjugate of mAb3b; also called mAb3b-vc-seco-DUBA
As to B9, in experiment [2], the “Efficacy (%), in vitro cytotoxicity, MKN-45, -HGF” value was 84%; the “Efficacy (%), in vitro cytotoxicity, NCI-H596, +HGF” value was 44%; the “Efficacy (%), in vitro cytotoxicity, NCI-H596, -HGF” value was determined as 10%; the “Efficacy (%), in vitro cytotoxicity, PC-3, +HGF” value was determined as 75%. Besides, in experiment [2], the “Efficacy (%), in vitro cytotoxicity, PC-3, -HGF” value came to 75%; the “IC50 1, in vitro cytotoxicity, PC-3, -HGF” value came out at 0.05 nM; the “IC50, in vitro cytotoxicity, MKN-45, -HGF” value stood at 0.38 nM; the “IC50, in vitro cytotoxicity, NCI-H596, +HGF” value came to 1.47 nM. Besides, in experiment [2], the “IC50, in vitro cytotoxicity, NCI-H596, -HGF” value is more than 10 nM and the “IC50, in vitro cytotoxicity, PC-3, +HGF” value was approximately 1.01 nM. Further, the “EC50 (read off the curve)” value in experiment [3] was approximately 0.04 µg/mL.

B10: wt-chi-mAb3 (antibody, human IgG1, kappa, V domains shown)
VH: QIQLQQSGPELVKPGASVKISCKASGYTFTDYYLNWVKQRPGQGLEWIGLIFPGNDKTEYSEKFKGKATLTVDTSSSTAYIQLSRLSSEDSAIYFCSGGDYGGFVYWGQGTLVTVSS
VL: DIQMTQSPTSLSASVGETVTITCGASENIYGALNWYQRKQGKSPQLLIYGATNLADGMSSRFSGSGSGRQFSLKINSLHPDDVATYFCQNVLSSPLTFGSGTKLEIKR
notes: Mouse/human chimeric IgG1 kappa; also called wild-type chimeric antibody mAb3
As to B10, the binding result in experiment [1] is on record as “binds”.

B11: wt-chi-mAb3: wild-type chimeric anti-c-Met IgG1 antibody, VH SEQ ID NO:5, VL SEQ ID NO:6 (antibody, V domains shown)
VH: QIQLQQSGPELVKPGASVKISCKASGYTFTDYYLNWVKQRPGQGLEWIGLIFPGNDKTEYSEKFKGKATLTVDTSSSTAYIQLSRLSSEDSAIYFCSGGDYGGFVYWGQGTLVTVSS
VL: DIQMTQSPTSLSASVGETVTITCGASENIYGALNWYQRKQGKSPQLLIYGATNLADGMSSRFSGSGSGRQFSLKINSLHPDDVATYFCQNVLSSPLTFGSGTKLEIK
modifications: human IgG1 constant regions; HCVR; LCVR
Consider B11, for which, in the experiment with c-Met, the Functionality result was “Neutral”.

B12: 41C-chi-mAb3: HC-41C chimeric anti-c-Met IgG1 antibody, VH SEQ ID NO:9, VL SEQ ID NO:6 (antibody, V domains shown)
VH: QIQLQQSGPELVKPGASVKISCKASGYTFTDYYLNWVKQRCGQGLEWIGLIFPGNDKTEYSEKFKGKATLTVDTSSSTAYIQLSRLSSEDSAIYFCSGGDYGGFVYWGQGTLVTVSS
VL: DIQMTQSPTSLSASVGETVTITCGASENIYGALNWYQRKQGKSPQLLIYGATNLADGMSSRFSGSGSGRQFSLKINSLHPDDVATYFCQNVLSSPLTFGSGTKLEIK
modifications: IgG1 constant regions; HCVR - VH P41C; LCVR
For B12, the Functionality result with c-Met is “Neutral”.

B13: 41C-chi-mAb3 (antibody, human IgG1, kappa, V domains shown)
VH: QIQLQQSGPELVKPGASVKISCKASGYTFTDYYLNWVKQRCGQGLEWIGLIFPGNDKTEYSEKFKGKATLTVDTSSSTAYIQLSRLSSEDSAIYFCSGGDYGGFVYWGQGTLVTVSS
VL: DIQMTQSPTSLSASVGETVTITCGASENIYGALNWYQRKQGKSPQLLIYGATNLADGMSSRFSGSGSGRQFSLKINSLHPDDVATYFCQNVLSSPLTFGSGTKLEIKR
notes: Chimeric IgG1 kappa with an engineered cysteine at HC position 41 (Kabat); also called HC-41C chimeric antibody mAb3
In the case of B13, the binding result in experiment [1] is given as “binds”.

As a reminder, the EC50 (read off the curve) is the concentration that produces a half-maximal response.

For the origin of these results see US20240376214A1, “ANTI-C-MET ANTIBODIES AND ANTIBODY-DRUG CONJUGATES” (BYONDIS B.V., priority 2021, published 2024).
